Test results reported in US20130183702.

Tested on: T1, cholesterol-tagged, protease-sensitive polyacrylic acid block copolymer containing the peptide GSGRSAGC (SEQ ID NO: 20), embedded in polymer-caged liposomes (PCLs)
T1 sequence: GSGRSAGC

urokinase plasminogen activator (uPA)
carboxyfluorescein release from PCLs (total fluorescent intensity), -uPA vs +uPA (25 ug/mL, fresh batch), second test: They show very little difference in total intensity and the p value is 0.6617 between the two, indicating that they are not different
carboxyfluorescein release from PCLs (total fluorescent intensity), no uPA vs 25 ug/mL uPA, first test: there was very little difference between the no uPA sample and the uPA sample, indicating that the polymer caged liposome did not have the desired sensitivity to uPA (p=0.5173)
carboxyfluorescein release from PCLs (total fluorescent intensity), no uPA vs renatured uPA, third test: there is a difference between the no uPA sample and the uPA sample with the uPA sample being significantly higher (p value 0.0071)
change in conductance (current vs. time) after adding 10^-11 mol urokinase to MgSO4-loaded PCLs: A significant increase in conductance was observed due to the release of Mg^2+ and SO4^2- from the liposomes' hydrophilic interior
fluorescence of cyanine 7.0 released from PCLs after adding urokinase-type plasminogen activator, recorded every 5 min: The highest peak was visible after 50 minutes of incubation time
